Molecular target: the molecule itself
Assay: non-reducing SDS-PAGE with Western blot; mouse tissue supernatants (70 μg), sample buffer without reducing agent, unboiled, 8% SDS-PAGE, blot probed with an RIβ-specific antibody

B1: RIβ from mouse brain tissue (natural protein, mouse (endogenous in mouse brain), UniProt P12849 1-381, looked up)
chain: MASPSCFHSEDEDSLKGCEMYVQKHGIQQVLKECIVHLCVAKPDRPLRFLREHFEKLEKEENRQILARQKSNSQCDSHDEEISPTPPNPVVKARRRRGGVSAEVYTEEDAVSYVRKVIPKDYKTMTALAKAISKNVLFSHLDDNERSDIFDAMFPVTHIGGETVIQQGNEGDNFYVIDQGEVDVYVNGEWVTNISEGGSFGELALIYGTPRAATVKAKTDLKLWGIDRDSYRRILMGSTLRKRKMYEEFLSKVSILESLEKWERLTVADALEPVQFEDGEKIVVQGEPGDDFYIITEGTASVLQRRSPNEEYVEVGRLGPSDYFGEIALLLNRPRAATVVARGPLKCVKLDRPRFERVLGPCSEILKRNIQRYNSFISLTV
modifications: disulfide bonded (dimer seen under non-reduced conditions)
notes: PKA regulatory subunit RIβ, endogenous in mouse brain, detected with an RIβ-specific antibody; source: endogenous, mouse brain homogenate (digitonin lysis buffer), supernatant
stoichiometry N: 2

— paper PMC12535202, “N3A motifs in RIβ mediate allosteric crosstalk between cAMP and ATP in PKA activation” (Protein Science : A Publication of the Protein Society, 2025)
